From patent US20140087995A1 (published 2014)
Numbered stars: 1 amine (or outer) side, 2 acyl side, 3 side chain; on linkers, the order of the positions; unused ones are H or OH. Bridge positions count the residues as written; N and C are the ends. Side chains are listed from the residue outwards. Ends that are not written are not given here. * marks the point of attachment. C20 diacid = O=C(O)CCCCCCCCCCCCCCCCCCC(=O)*; γGlu = O=C(O)[C@H](CCC(=O)[*:2])N[*:1]

T1: human calcitonin receptor (human, UniProt P30988 25-474)
T1 construct: whole, on cells; Membranes in a scintillation proximity assay (Assay VII); also called hCTR; hCT
T1 sequence (looked up): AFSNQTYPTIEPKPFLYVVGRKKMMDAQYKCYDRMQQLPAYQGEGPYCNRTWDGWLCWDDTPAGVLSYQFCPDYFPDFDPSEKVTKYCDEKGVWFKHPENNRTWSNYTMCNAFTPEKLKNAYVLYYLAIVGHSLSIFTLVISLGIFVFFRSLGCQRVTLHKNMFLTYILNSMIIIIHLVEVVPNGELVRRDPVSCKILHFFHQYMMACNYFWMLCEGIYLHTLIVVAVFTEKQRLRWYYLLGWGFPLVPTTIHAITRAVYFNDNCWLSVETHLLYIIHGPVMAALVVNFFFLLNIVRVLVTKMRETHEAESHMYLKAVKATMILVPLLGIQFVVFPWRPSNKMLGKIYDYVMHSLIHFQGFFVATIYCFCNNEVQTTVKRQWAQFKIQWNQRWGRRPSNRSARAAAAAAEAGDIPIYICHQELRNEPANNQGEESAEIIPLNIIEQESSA


What was measured:
[1] = molecular target: T1, human calcitonin receptor; experiment: ratio of IC50 at human calcitonin receptor to IC50 at human amylin receptor (reference), SPA binding assays
Procedure: The resulting pellet was resuspended, homogenized and centrifuged (20.000 rpm, 15 min) in a buffer containing 20 mM Na-HEPES and 0.1 mM EDTA (pH 7.4, buffer 2). The resulting pellet was resuspended in buffer 2 and protein concentration was measured (BCA protein Assay, Pierce). The homogenate was kept cold during the whole procedure. The membranes were kept at −80° C. until use. The assay was performed in a 384 well Optiplate (PerkinElmer) in a total volume of 40 ul. Membranes were mixed with SPA beads. Final concentration of membranes 35 ng/μL final and SPA beads was 0.05 mg/well. Test-compounds were dissolved in DMSO and further diluted in assay buffer (50 mM Hepes, pH 7.4, 1 mM CaCl2, 5 mM MgCl₂, 0.1% OA and 0.02% Tween20). […] The final mixture was incubated with shaking at 400 rpm for 120 min at 25° C. prior to centrifugation (1500 rpm, 10 min). Samples were analyzed on TopCounter™ (Packard). The IC₅₀ was calculated using (one site binding competition analysis) GraphPad Prism5 as a measure of receptor affinity.
Membranes were prepared in the following way; the cells were rinsed with PBS and incubated with Versene for approximately 5 min before harvesting. The cells were flushed with PBS and the cell-suspension was centrifuged for 5 min at 1000 rpm. Cells were homogenized (Ultrathurrax) in a buffer containing 20 mM Na-HEPES and 10 mM EDTA (pH 7.4) and centrifuged at 20.000 rpm for 15 min. The resulting pellet was resuspended, homogenized and centrifuged (20.000 rpm, 15 min) in a buffer containing 20 mM Na-HEPES and 0.1 mM EDTA (pH 7.4, buffer 2). The resulting pellet was resuspended in buffer 2 and protein concentration was measured (BCA protein Assay, Pierce). The homogenate was kept cold during the whole procedure. The membranes were kept at −80° C. until use. Assay was performed in a 384 well Optiplate (PerkinElmer) in a total volume of 40 ul. Membranes were mixed with SPA beads.

[2] = molecular target: T1, human calcitonin receptor; experiment: SPA competition binding, displacement of 125I-calcitonin from membranes with human calcitonin receptor (Assay VII)
Procedure: Membranes were prepared in the following way; the cells were rinsed with PBS and incubated with Versene for approximately 5 min before harvesting. The cells were flushed with PBS and the cell-suspension was centrifuged for 5 min at 1000 rpm. Cells were homogenized (Ultrathurrax) in a buffer containing 20 mM Na-HEPES and 10 mM EDTA (pH 7.4) and centrifuged at 20.000 rpm for 15 min. The resulting pellet was resuspended, homogenized and centrifuged (20.000 rpm, 15 min) in a buffer containing 20 mM Na-HEPES and 0.1 mM EDTA (pH 7.4, buffer 2). The resulting pellet was resuspended in buffer 2 and protein concentration was measured (BCA protein Assay, Pierce). The homogenate was kept cold during the whole procedure. The membranes were kept at −80° C. until use. Assay was performed in a 384 well Optiplate (PerkinElmer) in a total volume of 40 ul. Membranes were mixed with SPA beads. Final concentration of membranes 35 ng/μL final and Final concentration of SPA beads was 0.05 mg/well. Test-compounds were dissolved in DMSO and further diluted in assay buffer (50 mM Hepes, pH 7.4, 1 mM CaCl2, 5 mM MgCl₂, 0.1% OA and 0.02% Tween20). […] The final mixture was incubated for 120 min with shaking at 400 rpm at 25° C. prior to centrifugation (1500 rpm, 10 min). Samples were analyzed on TopCounter™ (Packard). The […] was calculated using (one site binding competition analysis) GraphPad Prism5 as a measure of receptor affinity.

Row | Binder | Ratio hCT/hAmylin binding [1] | IC50 [2]
1 | K([γGlu-C20 diacid])CNTATCATQRLADFLRHSSPNFGAIPSSTNVGPRTY-NH2 (disulfide 2-7 (inferred)) | 151 | 42.5 nM
2 | K([γGlu-C20 diacid])CNTATCATQRLADFLRHSSPNFGAIPSSTNVGPETY-NH2 (disulfide 2-7 (inferred)) | 16.7 | 3.27 nM
3 | K([γGlu-γGlu-C20 diacid])CNTATCATQRLAEFLRHSSPNFGAIPSSTNVGPHTY-NH2 (disulfide 2-7 (inferred)) | 27.3 | 10.3 nM
4 | K([γGlu-C20 diacid])CNTATCATQRLAEFLRHSSPNFGAIPSSTNVGSHTY-NH2 (disulfide 2-7 (inferred)) | 26.4 | 26.1 nM
